{"source": "patent US20140199314A1", "target": "BMP-2 (UniProt P12643)", "sequence (P12643 283-396 limits assumed)": "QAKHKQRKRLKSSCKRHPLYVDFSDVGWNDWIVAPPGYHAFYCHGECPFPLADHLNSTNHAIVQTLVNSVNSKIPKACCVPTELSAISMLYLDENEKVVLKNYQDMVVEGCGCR", "assay": "cell-based or functional assay", "data": [{"substance": "DRAGON.Fc (soluble DRAGON fused to the Fc portion of human immunoglobulin) (from UniProt Q6NW40 46-409) (Fc fusion)", "values": [{"measurement": "inhibition of BMP-2 induction of hepcidin promoter activity (luciferase) by 20% pooled serum from DRAGON.Fc treated mice; serum from mock treated control mice inhibited by about 30%", "value": "> 70", "unit": "%"}]}]}
